Test results: patent publication US20240115667A1 (priority 2020, published 2024)
Entries after “also recorded” stand apart in the source; their conditions may differ.

B1: lactoferrin: lactoferrin from human milk; iron-binding ~80 kDa glycosylated protein (protein, UniProt P02788 20-710, looked up)
Lactotransferrin: GRRRSVQWCAVSQPEATKCFQWQRNMRKVRGPPVSCIKRDSPIQCIQAIAENRADAVTLDGGFIYEAGLAPYKLRPVAAEVYGTERQPRTHYYAVAVVKKGGSFQLNELQGLKSCHTGLRRTAGWNVPIGTLRPFLNWTGPPEPIEAAVARFFSASCVPGADKGQFPNLCRLCAGTGENKCAFSSQEPYFSYSGAFKCLRDGAGDVAFIRESTVFEDLSDEAERDEYELLCPDNTRKPVDKFKDCHLARVPSHAVVARSVNGKEDAIWNLLRQAQEKFGKDKSPKFQLFGSPSGQKDLLFKDSAIGFSRVPPRIDSGLYLGSGYFTAIQNLRKSEEEVAARRARVVWCAVGEQELRKCNQWSGLSEGSVTCSSASTTEDCIALVLKGEADAMSLDGGYVYTAGKCGLVPVLAENYKSQQSSDPDPNCVDRPVEGYLAVAVVRRSDTSLTWNSVKGKKSCHTAVDRTAGWNIPMGLLFNQTGSCKFDEYFSQSCAPGSDPRSNLCALCIGDEQGENKCVPNSNERYYGYTGAFRCLAENAGDVAFVKDVTVLQNTDGNNNEAWAKDLKLADFALLCLDGKRKPVTEARSCHLAMAPNHAVVSRMDKVERLKQVLLHQQAKFGRNGSDCPDKFCLFQSETKNLLFNDNTECLARLHGKTTYEKYLGPQYVAGITNLKKCSTSPLLEACEFLRK
B2: Unsaturated iron lactoferrin: lactoferrin that has been depleted of iron; also termed reduced iron lactoferrin or apolactoferrin (protein, UniProt P02788 20-710, looked up)
Lactotransferrin: GRRRSVQWCAVSQPEATKCFQWQRNMRKVRGPPVSCIKRDSPIQCIQAIAENRADAVTLDGGFIYEAGLAPYKLRPVAAEVYGTERQPRTHYYAVAVVKKGGSFQLNELQGLKSCHTGLRRTAGWNVPIGTLRPFLNWTGPPEPIEAAVARFFSASCVPGADKGQFPNLCRLCAGTGENKCAFSSQEPYFSYSGAFKCLRDGAGDVAFIRESTVFEDLSDEAERDEYELLCPDNTRKPVDKFKDCHLARVPSHAVVARSVNGKEDAIWNLLRQAQEKFGKDKSPKFQLFGSPSGQKDLLFKDSAIGFSRVPPRIDSGLYLGSGYFTAIQNLRKSEEEVAARRARVVWCAVGEQELRKCNQWSGLSEGSVTCSSASTTEDCIALVLKGEADAMSLDGGYVYTAGKCGLVPVLAENYKSQQSSDPDPNCVDRPVEGYLAVAVVRRSDTSLTWNSVKGKKSCHTAVDRTAGWNIPMGLLFNQTGSCKFDEYFSQSCAPGSDPRSNLCALCIGDEQGENKCVPNSNERYYGYTGAFRCLAENAGDVAFVKDVTVLQNTDGNNNEAWAKDLKLADFALLCLDGKRKPVTEARSCHLAMAPNHAVVSRMDKVERLKQVLLHQQAKFGRNGSDCPDKFCLFQSETKNLLFNDNTECLARLHGKTTYEKYLGPQYVAGITNLKKCSTSPLLEACEFLRK
modifications: iron-depleted apolactoferrin

Experiments:
[1] = system: SARS-CoV-2; format: cell-based; details: 400 μg/ml lactoferrin, 48 h after infection
[2] = system: SARS-CoV-2

Row | Molecule | Decrease of N-protein RNA copies [1] | Inhibition of SARS-CoV-2 infection in vitro [2] | Reduction of virus-induced cytotoxicity ([2]; MOI 0.3)
1 | B1 | 28.0% |  | 
2 | B2 |  | directly inhibited SARS-CoV-2 infection more effectively compared to hololactoferrin; also recorded: inhibited SARS-CoV-2 infection when administered alone | more effective than recombinant lactoferrin
